{
  "source": "patent US7033766B2",
  "about": "“Construction and screening of lantibody display libraries” (University of Maryland Office of Technology …, priority 2000, dated 2006)",
  "molecules": {"B1": {"name": "sublancin Display Peptide: mature sublancin segment (1–37), a 20-residue polyglycine spacer (38–57) and the subtilin leader segment (58–81) (protein)", "chain": "MEKLFKEVKLEELENQKGSGLGKAQCAALWLQCASGGTIGCGGGAVACQNYRQFCRGGGGGGGGGGGGGGGGGGGGMSKFDDFDLDVVKVSKQDSKITPQ", "modifications": "The peptide sequence of sunA-PG20-SL."}},
  "tested_on": "anti-sublancin antibodies",
  "test": "binding of anti-sublancin polyclonal antibodies to the displayed peptide (peroxidase colour reaction, magnetic beads)",
  "settings": "rabbit antibodies raised against sublancin-KLH conjugate",
  "procedure": "The transformed host was cultured in Medium A to allow the Lantibody Display Peptide to be expressed. Expression was monitored by observing the appearance of the Display Peptide in the cytoplasm of the cell, the membrane, the cell wall and in the extracellular medium. The peptide was detected using polyclonal antibodies raised in rabbits against a sublancin-KLH conjugate as an antigen.\nTo explore this hypothesis, cells expressing the Lantibody Display Peptide as shown in FIG. 8 were centrifuged out of the culture medium and resuspended in buffer. The cell suspension was treated with anti-sublancin antibodies, and washed to remove any unbound antibody. To determine whether anti-sublancin antibodies were bound to the surface of the cells, goat anti-rabbit antibodies that were conjugated with horseradish peroxidase were added and allowed to adsorb to any antibodies on the surface of the cells. The cells were washed and the peroxidase color reagent was added.",
  "data": [
    {"molecule": "B1", "values": [
      {"measurement": "binding to polyclonal anti-sublancin antibody", "value": "recognize and bind to a target substrate"},
      {"measurement": "binding to polyclonal anti-sublancin antibody", "setting": "listed as Sublancin Display Peptide", "value": "responsible for the binding to sublancin antibodies"}
    ]}
  ]
}
